Laboratory results: patent US20050233313

These substances were tested on β-galactosidase substrate with a cleavage cassette (decapeptide corresponding to an HIV protease cleavage site) inserted into its open reading frame [β-galactosidase: P00722].
Chain of β-galactosidase substrate with a cleavage cassette (decapeptide corresponding to an HIV protease cleavage site) inserted into its open reading frame [β-galactosidase: P00722] (P00722 2-1024): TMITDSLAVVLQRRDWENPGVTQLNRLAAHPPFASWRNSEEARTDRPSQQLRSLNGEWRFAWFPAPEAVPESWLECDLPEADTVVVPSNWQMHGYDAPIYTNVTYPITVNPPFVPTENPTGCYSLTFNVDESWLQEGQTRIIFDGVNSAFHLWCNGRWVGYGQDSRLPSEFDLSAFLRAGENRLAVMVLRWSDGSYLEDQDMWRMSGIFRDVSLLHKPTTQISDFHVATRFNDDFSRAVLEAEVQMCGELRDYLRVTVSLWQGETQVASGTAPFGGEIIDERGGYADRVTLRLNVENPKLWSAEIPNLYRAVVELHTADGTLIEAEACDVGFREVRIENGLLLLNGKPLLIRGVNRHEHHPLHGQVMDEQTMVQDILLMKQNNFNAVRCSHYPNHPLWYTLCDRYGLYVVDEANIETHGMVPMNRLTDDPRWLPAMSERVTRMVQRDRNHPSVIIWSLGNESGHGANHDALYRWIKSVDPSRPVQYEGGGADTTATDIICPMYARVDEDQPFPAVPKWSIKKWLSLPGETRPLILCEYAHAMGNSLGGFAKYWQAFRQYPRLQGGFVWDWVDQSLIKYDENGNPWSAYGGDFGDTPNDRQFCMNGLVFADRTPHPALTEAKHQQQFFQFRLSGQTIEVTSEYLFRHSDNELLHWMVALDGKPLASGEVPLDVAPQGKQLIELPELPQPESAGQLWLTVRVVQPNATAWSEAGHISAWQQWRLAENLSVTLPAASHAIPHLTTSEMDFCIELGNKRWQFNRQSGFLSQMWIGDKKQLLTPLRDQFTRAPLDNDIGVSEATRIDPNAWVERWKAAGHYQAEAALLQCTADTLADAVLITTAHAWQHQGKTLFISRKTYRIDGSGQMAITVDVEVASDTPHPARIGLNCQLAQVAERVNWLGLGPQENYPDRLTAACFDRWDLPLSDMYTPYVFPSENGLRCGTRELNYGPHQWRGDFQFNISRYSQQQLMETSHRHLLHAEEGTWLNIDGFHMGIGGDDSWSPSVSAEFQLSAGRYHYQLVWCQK
“HIV-1 protease T4A (99 residues, HXB2) expressed from pMono” gave a % Cleavage of 96%.
“HIV-1 protease Q2A (99 residues, HXB2) expressed from pMono” showed a % Cleavage of 96%.
Substance “HIV-1 protease T96A (99 residues, HXB2) expressed from pMono” has a % Cleavage of 14%.
“HIV-1 protease D25A (99 residues, HXB2) expressed from pMono” gave a % Cleavage of 0%.
“HIV-1 protease N98A (99 residues, HXB2) expressed from pMono” gave a % Cleavage of 68%.
“HIV-1 protease F99A (99 residues, HXB2) expressed from pMono” gave a % Cleavage of 0%.
Substance “HIV-1 protease L97A (99 residues, HXB2) expressed from pMono” has a % Cleavage of 0%.
With “HIV-1 protease I3A (99 residues, HXB2) expressed from pMono” the % Cleavage was 0%.
With “HIV-1 protease P1A (99 residues, HXB2) expressed from pMono” the % Cleavage was 92%.
